From publication PMC10445738

Tests used:
Assay in all cases: AP-MS
[1] = molecular target: HOIL-1-interacting protein (HOIP), endogenous (UniProt Q96EP0); settings: FLAG-tagged OTULIN bait expressed in HEK293 cells; endogenous prey; parent: est. 27; read off a plot
[2] = molecular target: SLC9A3R2, endogenous (UniProt Q15599); settings: FLAG-tagged OTULIN bait expressed in HEK293 cells; endogenous prey; read off a plot
[3] = molecular target: SNX27, endogenous (UniProt Q96L92); settings: FLAG-tagged OTULIN bait expressed in HEK293 cells; endogenous prey; parent: est. 62; read off a plot
[4] = molecular target: scribble (SCRIB), endogenous (UniProt Q14160); settings: FLAG-tagged OTULIN bait expressed in HEK293 cells; endogenous prey; parent: est. 110; read off a plot
UniProt Q14160, sequence (Q14160 whole entry): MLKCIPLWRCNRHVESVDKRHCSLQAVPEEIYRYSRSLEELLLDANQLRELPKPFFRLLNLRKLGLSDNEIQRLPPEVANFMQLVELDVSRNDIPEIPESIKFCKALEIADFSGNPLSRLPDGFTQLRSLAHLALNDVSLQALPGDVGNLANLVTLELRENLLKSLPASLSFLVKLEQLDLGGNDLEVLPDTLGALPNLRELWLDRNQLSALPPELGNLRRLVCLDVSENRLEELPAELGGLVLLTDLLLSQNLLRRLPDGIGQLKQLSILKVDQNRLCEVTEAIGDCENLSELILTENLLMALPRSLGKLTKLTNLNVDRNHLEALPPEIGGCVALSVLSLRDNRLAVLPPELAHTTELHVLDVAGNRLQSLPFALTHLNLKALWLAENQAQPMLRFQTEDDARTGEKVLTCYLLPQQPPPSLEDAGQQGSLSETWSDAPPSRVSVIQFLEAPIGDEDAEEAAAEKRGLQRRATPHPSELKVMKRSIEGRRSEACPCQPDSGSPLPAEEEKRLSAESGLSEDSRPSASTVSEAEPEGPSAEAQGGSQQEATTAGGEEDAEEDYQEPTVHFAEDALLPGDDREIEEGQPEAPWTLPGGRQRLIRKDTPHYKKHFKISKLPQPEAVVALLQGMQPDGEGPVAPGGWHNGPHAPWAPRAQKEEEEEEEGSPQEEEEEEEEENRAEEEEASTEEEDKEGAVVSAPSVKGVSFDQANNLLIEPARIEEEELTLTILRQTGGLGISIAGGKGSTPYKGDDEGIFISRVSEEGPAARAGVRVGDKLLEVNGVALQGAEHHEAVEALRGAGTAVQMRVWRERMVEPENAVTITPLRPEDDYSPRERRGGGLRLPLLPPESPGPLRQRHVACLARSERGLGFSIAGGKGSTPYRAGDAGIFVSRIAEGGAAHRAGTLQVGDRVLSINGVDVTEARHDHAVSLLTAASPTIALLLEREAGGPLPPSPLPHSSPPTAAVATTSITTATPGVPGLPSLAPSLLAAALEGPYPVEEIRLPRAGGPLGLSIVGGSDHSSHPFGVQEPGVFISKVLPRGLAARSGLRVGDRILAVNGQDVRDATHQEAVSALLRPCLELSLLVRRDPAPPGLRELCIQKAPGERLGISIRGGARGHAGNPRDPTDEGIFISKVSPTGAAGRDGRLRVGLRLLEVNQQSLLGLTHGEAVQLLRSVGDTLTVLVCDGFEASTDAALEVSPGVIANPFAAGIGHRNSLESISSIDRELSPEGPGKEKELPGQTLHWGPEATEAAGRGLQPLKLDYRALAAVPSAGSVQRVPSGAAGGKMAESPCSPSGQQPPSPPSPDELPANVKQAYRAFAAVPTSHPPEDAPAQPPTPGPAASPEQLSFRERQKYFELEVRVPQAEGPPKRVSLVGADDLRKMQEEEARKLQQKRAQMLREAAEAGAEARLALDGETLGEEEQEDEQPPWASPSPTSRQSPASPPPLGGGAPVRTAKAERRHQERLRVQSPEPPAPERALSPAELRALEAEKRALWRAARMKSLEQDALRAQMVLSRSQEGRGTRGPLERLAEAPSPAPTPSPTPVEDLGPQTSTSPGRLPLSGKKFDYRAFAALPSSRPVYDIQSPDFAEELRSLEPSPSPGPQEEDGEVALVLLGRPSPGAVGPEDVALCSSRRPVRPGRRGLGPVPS

UniProt Q96EP0, sequence (Q96EP0 whole entry): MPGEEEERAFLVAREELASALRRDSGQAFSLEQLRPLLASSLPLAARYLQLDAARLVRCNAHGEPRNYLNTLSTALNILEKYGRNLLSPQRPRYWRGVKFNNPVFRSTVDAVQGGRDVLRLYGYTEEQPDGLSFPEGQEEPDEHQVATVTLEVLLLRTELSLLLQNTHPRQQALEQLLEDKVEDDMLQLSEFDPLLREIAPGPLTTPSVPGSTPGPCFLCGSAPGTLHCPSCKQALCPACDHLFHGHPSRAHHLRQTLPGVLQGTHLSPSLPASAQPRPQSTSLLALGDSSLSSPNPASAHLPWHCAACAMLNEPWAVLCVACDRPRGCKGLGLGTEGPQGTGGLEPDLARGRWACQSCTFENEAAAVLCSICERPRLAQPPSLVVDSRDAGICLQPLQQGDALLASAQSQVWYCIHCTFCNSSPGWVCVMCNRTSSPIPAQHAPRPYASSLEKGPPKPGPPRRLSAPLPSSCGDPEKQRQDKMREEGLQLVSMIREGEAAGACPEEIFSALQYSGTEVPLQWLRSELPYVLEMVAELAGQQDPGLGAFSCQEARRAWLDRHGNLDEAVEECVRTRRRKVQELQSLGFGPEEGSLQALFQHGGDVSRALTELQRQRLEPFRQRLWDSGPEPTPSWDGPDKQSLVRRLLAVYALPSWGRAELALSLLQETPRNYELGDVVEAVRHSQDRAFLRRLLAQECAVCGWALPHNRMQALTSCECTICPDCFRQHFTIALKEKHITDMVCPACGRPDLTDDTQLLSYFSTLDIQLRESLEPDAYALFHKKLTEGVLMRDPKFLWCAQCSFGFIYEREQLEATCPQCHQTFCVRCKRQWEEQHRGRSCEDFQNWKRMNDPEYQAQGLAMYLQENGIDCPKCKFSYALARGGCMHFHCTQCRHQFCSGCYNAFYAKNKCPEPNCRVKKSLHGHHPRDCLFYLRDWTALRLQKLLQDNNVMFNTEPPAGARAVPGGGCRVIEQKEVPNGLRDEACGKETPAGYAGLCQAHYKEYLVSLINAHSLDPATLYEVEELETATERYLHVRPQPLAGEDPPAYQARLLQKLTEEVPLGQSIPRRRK
UniProt Q15599, sequence (Q15599 whole entry): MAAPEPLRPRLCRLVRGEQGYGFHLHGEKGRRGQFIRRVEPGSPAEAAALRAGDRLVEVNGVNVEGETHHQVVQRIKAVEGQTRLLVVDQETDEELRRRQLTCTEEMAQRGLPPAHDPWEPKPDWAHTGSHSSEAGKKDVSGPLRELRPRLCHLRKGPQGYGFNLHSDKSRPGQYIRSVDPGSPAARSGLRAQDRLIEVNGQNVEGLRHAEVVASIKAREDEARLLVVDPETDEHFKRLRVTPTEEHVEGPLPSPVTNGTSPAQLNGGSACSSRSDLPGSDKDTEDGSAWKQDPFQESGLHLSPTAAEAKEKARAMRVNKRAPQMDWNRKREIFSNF

response (spectral counts) [1]: 23
response (spectral counts) [2]: 0
response (spectral counts) [3]: 0
response (spectral counts) [4]: 0
Substance: FLAG-tagged full-length OTULIN (WT) (from UniProt Q96BN8) ΔPBM: C-terminal ETSL to AAAA
